Results taken from US8722622B2, “FGF21 conjugates and anti-diabetic uses thereof” (COVX Technologies Ireland, Limited, priority 2010, dated 2014).

Legend:
DIO mice = assay: Mouse efficacy in high-fat diet-induced obese (DIO) mice; format: in vivo; conditions: day 10, 1 mg/kg QD
Procedure: (§1) The efficacy of FGF21 antibodies conjugates was evaluated in two murine obese insulin resistant models—ob/ob mice and high-fat diet-induced obese mice. For both models, male mice (6-8 weeks of age for ob/ob, 12-14 weeks of age for DIO with high-fat diet initiated at 6 weeks of age) were housed 2-4/cage and FGF21 antibody conjugates were administered by SC injection. Body weight was measured daily in the morning. Glucose tolerance was assessed by oral glucose tolerance test. Briefly, mice were fasted for 4-5 hrs in the morning of the day of testing. A basal blood sample was obtained and blood glucose levels were determined using a portable glucometer. Following basal sample, glucose was administered by oral gavage, and blood samples were drawn from 15 to 120 mins thereafter.
(§2) For […] expression, frozen visceral WAT samples collected from the in vivo efficacy studies were homogenized. Total RNA was extracted from the tissue homogenates, and Glut1 and GAPDH mRNA expression was measured using a Quantitect Probe RT-PCR kit and running a quantitative real time PCR reaction in a Taqman machine (Applied Biosystems). The effect of treatment was determined by a fold change in Glut1 mRNA levels normalized by the GAPDH mRNA levels from each sample.

[1] = tested on: Differentiated 3T3-L1 adipocytes; assay: Glucose uptake assay; format: cell-based; conditions: unconjugated protein; n in brackets
Procedure: Differentiated 3T3-L1 adipocytes were treated with compounds in the absence of serum for 24 hrs. Cells were then incubated with ^14C-2-deoxyglucose for 1 hr and glucose uptake into the cells was quantitated in Wallac 1450 MicroBeta (Trilux) instrument. Glucose uptake was expressed in counts per min (CPM). EC50 values as measurements of the potency of the compounds were obtained from the dose response curves in the assay.

[2] = parameters: species or system Swiss-Webster mice; conditions: mouse, in vivo
Procedure: The PK of FGF21 antibody conjugates were examined in mice after IV or SC administration. […] Antibody conjugates concentrations in serum were determined using an ELISA which captured the FGF21 portion of the antibody conjugates through a monoclonal anti-hFGF21 antibody bound to a 96-well plate. FGF21 antibody conjugates bound to the plate were detected through an anti-hFc monoclonal antibody, and concentrations were determined using a standard curve of the PK dosing solution diluted into serum-containing assay buffer. SC bioavailability was calculated as the ratio of the area-under the curve (AUC) of the SC serum concentration profile divided by the AUC of the IV serum concentration profile.

ob/ob mice = assay: Mouse efficacy in ob/ob mice (OGTT, body weight, liver, gene expression); format: in vivo
Procedure: as §1, §2

[3] = tested on: obese insulin resistant (pre-diabetic) cynomolgus macaques; format: in vivo, Macaca fascicularis; conditions: 0.3 mg/kg QD
Procedure: […] adult cynomolgus monkeys (Macaca fascicularis) were included in the study. The monkeys (13 male, 11 female) were stratified into four treatment groups of 6 individuals, based on sex, body weight, and basal glycemic and lipid indices measured in a baseline plasma sample collected 2 weeks prior to the start of dosing. Animals were maintained on a high fat diet. Animals were dosed for 4 weeks followed by a 4 week washout period.
Blood samples were collected weekly during the dosing and washout periods, with the exception that no samples were collected at week 3 of washout. After an overnight fast (16-18 h), monkeys were sedated with ketamine 10-15 mg/kg by intramuscular (IM) injection. Body weights were recorded and blood (5 mL) was collected via percutaneous femoral venipuncture into ethylenediaminetetraacetic acid (EDTA) treated Vacutainer tubes pretreated with ˜1.8 trypsin inhibitor units (TIU) Aprotinin (Sigma 0.6 TIU per mL whole blood). Tubes were immediately placed on ice. Plasma was prepared by centrifugation, with the resulting plasma aliquoted and frozen at −80° C.
Data were treated in the same way for each pharmacodynamic endpoint. The baseline value for each individual monkey was subtracted from each timepoint to give a value corresponding to change from baseline. Changes from baseline values were averaged for each timepoint in each treatment group and standard error of the mean (SEM) calculated. Results are reported as mean change from baseline±SEM for each treatment group over the timecourse of the study. […] As there was no vehicle control group for the FGF21ΔH treated animals, the raw data and not the change from baseline value was used to assess statistical significance. In this case a student's T-test (two sided, paired sample) was carried out vs. baseline. […]
Plasma fructosamine was measured via an enzymatic colorimetric method using the Ace Alera Clinical Chemistry Analyzer using a kit from Roche Diagnostics®(Mannheim, Germany) according to manufacturer's instructions. […] Significant reduction in plasma fructosamine levels over time indicates improved glycemic control. […]
TPC levels were measured using enzymatic methods on the Ace Alera analyzer. There was a significant decrease in TPC after 1 week of treatment in all treatment groups (FIG. 9H).
TG levels were measured using enzymatic methods on the Ace Alera analyzer.
Non-esterified free fatty acids (FFA) were measured using enzymatic methods on a Roche Cobas® C311 clinical chemistry analyzer using protocols and reagents from Wako® (Wako Diagnostics, Richmond, Va.) according to manufacturer's instructions.
HDL levels were measured using enzymatic methods on the Ace Alera analyzer. There was no significant change in HDL cholesterol over the treatment period in any of the treatment groups.
LDL levels were measured using enzymatic methods on the Ace Alera analyzer.
TOTK were measured using enzymatic methods on a Roche Cobas® C311 clinical chemistry analyzer using protocols and reagents from Wako®.
Adiponectin levels were determined using a Mercodia® ELISA kit.
C-reactive protein (CRP) was measured using an ELISA kit from ALPCO Diagnostics® (Salem, N.H.) according to manufacturer's instructions. […] Levels trended back to baseline during the washout phase.
Leptin was measured by Luminex® technology (Millipore® catalogue number HMH-34K) with protocols and reagents according to manufacturer's instructions.
Adipsin levels were measured using and R&D Systems® (Minneapolis Minn.) human complement factor D Quantikine kit (catalogue number DFD00) according to manufacturer's instructions. […] The levels trended back towards baseline during the washout phase.

[4] = ob/ob mice liver, day 6, qPCR, 1 mg/kg QD

B1: FGF21ΔH: FGF21 with H1 absent (ΔH1), L146, SEQ ID NO:2; control protein (protein, listed as Homo sapiens)
chain: PIPDSSPLLQFGGQVRQRYLYTDDAQQTEAHLEIREDGTVGGAADQSPESLLQLKALKPGVIQILGVKTSRFLCQRPDGALYGSLHFDPEACSFRELLLEDGYNVYQSEAHGLPLHLPGNKSPHRDPAPRGPARFLPLPGLPPAPLEPPGILAPQPPDVGSSDPLSMVGPSQGRSPSYAS
Body weight change from day −1 (DIO mice): −1.6
Glucose AUC during OGTT (DIO mice): 75
Mean values of serum lipids NEFA (DIO mice): 0.40 mM
Mean values of serum lipids TG (DIO mice): 92 mg/dL
UCP1 mRNA expression in WAT (DIO mice): 1.38
EC50 [1]: 12 nM
IV T1/2 ([2]; iv): 24 min
% SC BioAv ([2]; sc): 96%
SC T1/2 ([2]; sc): 30 min
GTT* (% AUC of Ctrl) (ob/ob mice; 1 mg/kg Qd (FGF21dH protein)): 67 % AUC of Ctrl
Mean fold changes of mRNA expression, FoxA2 (ob/ob mice; [4]): 1.23 fold
Mean fold changes of mRNA expression, MOGAT2 (ob/ob mice; [4]): 0.37 fold
Mean fold changes of mRNA expression, SCD1 (ob/ob mice; [4]): 0.95 fold
Mean Glucose AUC (% of vehicle control) (ob/ob mice; ob/ob mice, OGTT day 6, 1 mg/kg QD): 61 % of vehicle control
Body weight change from day −1 (ob/ob mice; ob/ob mice, day 6, 1 mg/kg QD): 4.7
Glucose AUC during OGTT (ob/ob mice; ob/ob mice, day 6, 1 mg/kg QD): 67
Liver Weight (ob/ob mice; ob/ob mice, day 6, 1 mg/kg QD): 1.8 g
Triglycerides content in liver (ob/ob mice; ob/ob mice, day 6, 1 mg/kg QD): 37.0
UCP1 mRNA expression in WAT (ob/ob mice; ob/ob mice, day 6, 1 mg/kg QD): 2.6
Mean Glucose AUC (% of vehicle control) during OGTT (ob/ob mice; ob/ob mice, single SC dose 0.6 mg/kg (FIG. 4A)): 103 % of vehicle control
Cumulative body weight change, mean body weight (ob/ob mice; ob/ob mice, single SC dose 0.6 mg/kg (FIG. 5A)): 3.2 g
mean liver weight (ob/ob mice; ob/ob mice, single SC dose 0.6 mg/kg (FIG. 5B)): 2.4 g
Cumulative body weight change, mean body weight (ob/ob mice; ob/ob mice, single SC dose 1 mg/kg (FIG. 5A)): 2.5 g
mean liver weight (ob/ob mice; ob/ob mice, single SC dose 1 mg/kg (FIG. 5B)): 2.2 g
Mean Glucose AUC (% of vehicle control) during OGTT (ob/ob mice; ob/ob mice, single SC dose 1 mg/kg (FIGS. 4A, 4B)): 74 % of vehicle control
Cumulative body weight change, mean body weight (ob/ob mice; ob/ob mice, single dose, dose not printed (FIG. 6A)): 1.9 g
mean glucose AUC % during OGTT (ob/ob mice; ob/ob mice, single dose, dose not printed (FIG. 6B)): 63%
LDL cholesterol [3]: significant decrease in LDL cholesterol levels was only observed after 1 week of treatment
non-esterified free fatty acids (FFA) [3]: significantly increased over the first 2 weeks of treatment
plasma adiponectin [3]: trended upwards
body weight ([3]; 4 weeks, vs baseline): significant decrease in body weight
plasma fructosamine ([3]; after 3 weeks): significantly reduced
triglycerides (TG) ([3]; dosing period): significant decrease in TG
total ketone bodies (TOTK) ([3]; first 3 weeks of treatment): significantly increased
plasma leptin ([3]; not significant): decreased
plasma C-reactive protein (CRP) ([3]; significance only at 1 week washout): decreased
